Data set [1] deals with the molecule itself. Nature of the data set: SPR; S100A1, A4, A7, A9 and A13 (~1.3 µg/mL) injected (2 min at 30 µL/min) over immobilised S100A4 and S100A9 (~2.5 kRU); 1 mM Ca++ and 20 µM Zn++; responses at late association phase. (In general: In SPR one partner is held on a chip, and binding of the other changes the refractive index at the surface.)
Another data set has as its target T1, recombinant human S100A9 (human, UniProt P06702 1-114).
T1 construct: S100A9, human, recombinant; No oligomer size was measured here; also called S100A9 homodimer; source: produced in E. coli at Active Biotech
T1 sequence (looked up): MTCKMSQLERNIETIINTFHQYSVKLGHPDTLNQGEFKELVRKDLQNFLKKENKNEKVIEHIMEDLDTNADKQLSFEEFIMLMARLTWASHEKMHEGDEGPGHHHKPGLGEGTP
The description is as above. To be noted: both partners purified.

The values that follow come from publication PMC3648463, “Common Interactions between S100A4 and S100A9 Defined by a Novel Chemical Probe” (PLoS ONE, 2013).

B1: recombinant human S100A4 (natural protein)
chain: not shown
notes: S100A4, human, recombinant (R&D Systems); No catalogue number, limits or tags are stated; also called S100A4 homodimer; metastasin; source: bought: R&D Systems
In the case of B1, the binding result (in data set [1]; with recombinant human S100A9) was “binds” each time.
